According to the supplement of paper PMC10567573:

B1: GLT8D2 (parent)
chain: QEAKLLHWNGRHKPWDFPSVHNDL
B2: PTPN9 (parent)
chain: NKWTVQYNVSPLSWNVAVKFLMAR

Variants of: B1
Experiment: protein stability index of a GFP-peptide fusion (GPS, HEK-293T) (PSI 1-6); higher = more stable
Settings: c terminus: a fixed tail appended
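Also: lentivirally expressed fusions sorted by FACS into six bins by GFP to DsRed ratio, PSI derived from sequencing read proportions per bin multiplied by bin number.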

In order of rising protein stability index:
1. QEAKLLHWNGRHKPWDFPSVHNDW  2.06
2. QEAKLLHWNGRHKPWDFPSVHNDF  2.14
3. QEAKLLHWNGRHKPWDFPSVHNDV  2.42
4. QEAKLLHWNGRHKPWDFPSVHNDI  2.44
5. QEAKLLHWNGRHKPWDFPSVHNDH  2.65
6. QEAKLLHWNGRHKPWDFPSVHNDR  2.74
7. QEAKLLHWNGRHKPWDFPSVHNDP  2.85
8. QEAKLLHWNGRHKPWDFPSVHNDK  2.87
9. QEAKLLHWNGRHKPWDFPSVHNDM  2.98
10. QEAKLLHWNGRHKPWDFPSVHNDY  2.98
11. QEAKLLHWNGRHKPWDFPSVHNDG  3.07
12. QEAKLLHWNGRHKPWDFPSVHNDN  3.25
13. QEAKLLHWNGRHKPWDFPSVHNDT  3.41
14. QEAKLLHWNGRHKPWDFPSVHNDQ  3.5
15. QEAKLLHWNGRHKPWDFPSVHNDS  3.51
16. QEAKLLHWNGRHKPWDFPSVHNDD  3.75
17. QEAKLLHWNGRHKPWDFPSVHNDE  4.01

Variants of: B2
Experiment: as above
Settings: c terminus: a fixed tail appended

In order of falling protein stability index:
1. NKWTWQYNVSPLSWNVAVKFLMAR  5.45
2. NKWTVQYNVSPRSWNVAVKFLMAR  4.48
3. NKWTVQYNVSWLSWNVAVKFLMAR  4.3
4. NKWTVQYNVSPASWNVAVKFLMAR  4.28
5. NKWTVQYNISPLSWNVAVKFLMAR  4.2
6. NKWTVRYNVSPLSWNVAVKFLMAR  4.19
7. NKWTVQYNVSSLSWNVAVKFLMAR  4.04
8. NKWTVQYNVSHLSWNVAVKFLMAR  3.88
9. NDWTVQYNVSPLSWNVAVKFLMAR  3.84
10. NKWTVQYNGSPLSWNVAVKFLMAR  3.82
11. NKWTVHYNVSPLSWNVAVKFLMAR  3.77
12. FKWTVQYNVSPLSWNVAVKFLMAR  3.7
13. NEWTVQYNVSPLSWNVAVKFLMAR  3.64
14. NKWTVQYYVSPLSWNVAVKFLMAR  3.61
15. NKWTVQYNVSPDSWNVAVKFLMAR  3.6
16. NCWTVQYNVSPLSWNVAVKFLMAR  3.56
17. NKWTVQYNVSPLMWNVAVKFLMAR  3.55
18. NLWTVQYNVSPLSWNVAVKFLMAR  3.54
19. NKWTVQANVSPLSWNVAVKFLMAR  3.49
20. NKWYVQYNVSPLSWNVAVKFLMAR  3.46
21. NKWTIQYNVSPLSWNVAVKFLMAR  3.45
22. NKWTVQVNVSPLSWNVAVKFLMAR  3.44
23. NKWTVQYNVCPLSWNVAVKFLMAR  3.37
24. NKWTVQYNVSPLNWNVAVKFLMAR  3.31
25. NKWTVQFNVSPLSWNVAVKFLMAR  3.3
26. NKWTVEYNVSPLSWNVAVKFLMAR  3.28
27. WKWTVQYNVSPLSWNVAVKFLMAR  3.28
28. NIWTVQYNVSPLSWNVAVKFLMAR  3.27
29. NKWTTQYNVSPLSWNVAVKFLMAR  3.23
30. NKWTVQYNVTPLSWNVAVKFLMAR  3.21
31. NKWTVQYCVSPLSWNVAVKFLMAR  3.2
32. NKWTVQYNVVPLSWNVAVKFLMAR  3.2
33. NKWTMQYNVSPLSWNVAVKFLMAR  3.19
34. NKWTVKYNVSPLSWNVAVKFLMAR  3.19
35. NKWTKQYNVSPLSWNVAVKFLMAR  3.16
36. NMWTVQYNVSPLSWNVAVKFLMAR  3.14
37. NKWTHQYNVSPLSWNVAVKFLMAR  3.13
38. NTWTVQYNVSPLSWNVAVKFLMAR  3.13
39. NKWTVQYNVSPWSWNVAVKFLMAR  3.11
40. NKWTVQYNASPLSWNVAVKFLMAR  3.1
41. NKWTVQYNVSPLCWNVAVKFLMAR  3.09
42. NKWTVQYNCSPLSWNVAVKFLMAR  3.09
43. NKWTVQYNVSPLSINVAVKFLMAR  3.02
44. NKWTVCYNVSPLSWNVAVKFLMAR  2.98
45. NKWTVQYNWSPLSWNVAVKFLMAR  2.98
46. NKWTLQYNVSPLSWNVAVKFLMAR  2.96
47. NKWTEQYNVSPLSWNVAVKFLMAR  2.94
48. NKWTVQKNVSPLSWNVAVKFLMAR  2.94
49. NKWTVQMNVSPLSWNVAVKFLMAR  2.91
50. NKWTVQYNVSPCSWNVAVKFLMAR  2.9
51. NKWTVQYNVSPVSWNVAVKFLMAR  2.89
52. NWWTVQYNVSPLSWNVAVKFLMAR  2.89
53. NKWTVQYNVSPLVWNVAVKFLMAR  2.88
54. NKWTVQSNVSPLSWNVAVKFLMAR  2.84
55. NKWTVFYNVSPLSWNVAVKFLMAR  2.83
56. NKWTVQINVSPLSWNVAVKFLMAR  2.83
57. NKWTVQYNVSPLGWNVAVKFLMAR  2.81
58. NKWTVQYNVMPLSWNVAVKFLMAR  2.81
59. NKWTVVYNVSPLSWNVAVKFLMAR  2.79
60. NKWTVQLNVSPLSWNVAVKFLMAR  2.76
61. NKWTVQYNVSPLKWNVAVKFLMAR  2.74
62. NKWTVQYNVSPLDWNVAVKFLMAR  2.74
63. NKWTVQYNVSNLSWNVAVKFLMAR  2.66
64. NKWTVQYNVSPHSWNVAVKFLMAR  2.66
65. NKITVQYNVSPLSWNVAVKFLMAR  2.66
66. NKWTVQYNVSPLWWNVAVKFLMAR  2.65
67. NKWTVQYNTSPLSWNVAVKFLMAR  2.65
68. NKWTVTYNVSPLSWNVAVKFLMAR  2.6
69. NKWTVQYNVSLLSWNVAVKFLMAR  2.59
70. NKFTVQYNVSPLSWNVAVKFLMAR  2.59
71. NKYTVQYNVSPLSWNVAVKFLMAR  2.57
72. NKWMVQYNVSPLSWNVAVKFLMAR  2.57
73. NKWTVQYNKSPLSWNVAVKFLMAR  2.56
74. NKWAVQYNVSPLSWNVAVKFLMAR  2.55
75. NKWTVPYNVSPLSWNVAVKFLMAR  2.54
76. NKWTVQYNVSGLSWNVAVKFLMAR  2.51
77. NKWTVQYNVSPLHWNVAVKFLMAR  2.51
78. NYWTVQYNVSPLSWNVAVKFLMAR  2.49
79. NKWTVQYNVWPLSWNVAVKFLMAR  2.48
80. NKWTVQCNVSPLSWNVAVKFLMAR  2.47
81. NKWTVSYNVSPLSWNVAVKFLMAR  2.46
82. NKWTVQYLVSPLSWNVAVKFLMAR  2.45
83. NKWTVQYNLSPLSWNVAVKFLMAR  2.45
84. NKWTVQYNVSELSWNVAVKFLMAR  2.43
85. NKWTVNYNVSPLSWNVAVKFLMAR  2.38
86. NKWTVQYNVSPLSGNVAVKFLMAR  2.35
87. NKQTVQYNVSPLSWNVAVKFLMAR  2.35
88. NKWTVQYNVNPLSWNVAVKFLMAR  2.35
89. NKWTVQYNVSPLRWNVAVKFLMAR  2.34
90. NKWTVQYNVSPLYWNVAVKFLMAR  2.32
91. NKWTGQYNVSPLSWNVAVKFLMAR  2.31
92. NKWTVQYNVSPLPWNVAVKFLMAR  2.31
93. HKWTVQYNVSPLSWNVAVKFLMAR  2.3
94. NKWTVQYNVSPLSCNVAVKFLMAR  2.29
95. NKWTVDYNVSPLSWNVAVKFLMAR  2.28
96. NKWQVQYNVSPLSWNVAVKFLMAR  2.27
97. NQWTVQYNVSPLSWNVAVKFLMAR  2.27
98. NKWTVQYHVSPLSWNVAVKFLMAR  2.26
99. NKWTVQYRVSPLSWNVAVKFLMAR  2.26
100. NKWTVQYNVAPLSWNVAVKFLMAR  2.26
101. NKWTVQYNVDPLSWNVAVKFLMAR  2.26
102. NAWTVQYNVSPLSWNVAVKFLMAR  2.25
103. NKWTVQYNVHPLSWNVAVKFLMAR  2.23
104. NKWDVQYNVSPLSWNVAVKFLMAR  2.22
105. NKWTVQENVSPLSWNVAVKFLMAR  2.17
106. NKWTVQYNVSPMSWNVAVKFLMAR  2.17
107. NKWTVQYTVSPLSWNVAVKFLMAR  2.15
108. NKWTVQYNVSPLSHNVAVKFLMAR  2.15
109. NKWTVQNNVSPLSWNVAVKFLMAR  2.14
110. NKWTVQYNVFPLSWNVAVKFLMAR  2.12
111. NKWTVQYNYSPLSWNVAVKFLMAR  2.1
112. NKSTVQYNVSPLSWNVAVKFLMAR  2.1
113. NKWTVQYNVSPLSANVAVKFLMAR  2.09
114. NKVTVQYNVSPLSWNVAVKFLMAR  2.08
115. NKWTVQYDVSPLSWNVAVKFLMAR  2.07
116. NKWTVYYNVSPLSWNVAVKFLMAR  2.07
117. NKWTVQYNVSPISWNVAVKFLMAR  2.07
118. NKWTVQYNDSPLSWNVAVKFLMAR  2.06
119. VKWTVQYNVSPLSWNVAVKFLMAR  2.06
120. NKWTAQYNVSPLSWNVAVKFLMAR  2.04
121. NKWTVQYNVSPLQWNVAVKFLMAR  2.02
122. NKWTVMYNVSPLSWNVAVKFLMAR  2.02
123. NKWTVQYNVSALSWNVAVKFLMAR  2.01
124. NKWTVQYSVSPLSWNVAVKFLMAR  2
125. NKWTVQYNSSPLSWNVAVKFLMAR  2
126. NKWTSQYNVSPLSWNVAVKFLMAR  1.99
127. NKWTVQYNVSPLIWNVAVKFLMAR  1.99
128. NKRTVQYNVSPLSWNVAVKFLMAR  1.97
129. NKWTNQYNVSPLSWNVAVKFLMAR  1.95
130. NKWTPQYNVSPLSWNVAVKFLMAR  1.94
131. NKWTQQYNVSPLSWNVAVKFLMAR  1.92
132. NKWTVQDNVSPLSWNVAVKFLMAR  1.91
133. NKETVQYNVSPLSWNVAVKFLMAR  1.91
134. NKWTVQYNVSPSSWNVAVKFLMAR  1.88
135. NKWTVQPNVSPLSWNVAVKFLMAR  1.84
136. NKWTCQYNVSPLSWNVAVKFLMAR  1.83
137. NNWTVQYNVSPLSWNVAVKFLMAR  1.83
138. NKWTVQYNVYPLSWNVAVKFLMAR  1.82
139. NKWTVQTNVSPLSWNVAVKFLMAR  1.81
140. NKWNVQYNVSPLSWNVAVKFLMAR  1.81
141. NKWTVAYNVSPLSWNVAVKFLMAR  1.78
142. NKGTVQYNVSPLSWNVAVKFLMAR  1.77
143. NKWTDQYNVSPLSWNVAVKFLMAR  1.76
144. NKWPVQYNVSPLSWNVAVKFLMAR  1.76
145. NKWTVQQNVSPLSWNVAVKFLMAR  1.75
146. NKWTVQYNVSPQSWNVAVKFLMAR  1.72
147. NKWLVQYNVSPLSWNVAVKFLMAR  1.71
148. NKWTVGYNVSPLSWNVAVKFLMAR  1.7
149. NKPTVQYNVSPLSWNVAVKFLMAR  1.7
150. NKWTVQYNVSPLEWNVAVKFLMAR  1.69
151. NKWTVQYPVSPLSWNVAVKFLMAR  1.68
152. NKWTVQHNVSPLSWNVAVKFLMAR  1.68
153. NKWTYQYNVSPLSWNVAVKFLMAR  1.67
154. NRWTVQYNVSPLSWNVAVKFLMAR  1.66
155. NKWTVQYNVSPLSDNVAVKFLMAR  1.62
156. NKWTVQYNVIPLSWNVAVKFLMAR  1.62
157. NKWTVQYNPSPLSWNVAVKFLMAR  1.6
158. NKWTVQYNRSPLSWNVAVKFLMAR  1.55
159. SKWTVQYNVSPLSWNVAVKFLMAR  1.54
160. NKWTVQYNVSPPSWNVAVKFLMAR  1.52
161. NKWTVQYAVSPLSWNVAVKFLMAR  1.49
162. NFWTVQYNVSPLSWNVAVKFLMAR  1.49
163. NKWTVQYNESPLSWNVAVKFLMAR  1.46
164. NKTTVQYNVSPLSWNVAVKFLMAR  1.46
165. NKWTVQYNQSPLSWNVAVKFLMAR  1.43
166. NKWTVQYNVSPLAWNVAVKFLMAR  1.35
167. NKNTVQYNVSPLSWNVAVKFLMAR  1.31
168. NKWTVQYNVSPLSENVAVKFLMAR  1.28
169. NKWTVQGNVSPLSWNVAVKFLMAR  1.15
170. NKWTVQRNVSPLSWNVAVKFLMAR  1.14
171. NKHTVQYNVSPLSWNVAVKFLMAR  1.02
